B1: VH:VL chains; a variant is named by its letters at X, in order (parent)
chain 1: QVQLVQSGAEVKKPGASVKVSCKASGYTFTDYXMHWVRQAPGQGLEWMGXVNPNXXXTTYNQKFEGRVTMTTDTSTSTAYMELRSLRSDDTAVYYCARXNXLDXWGQGTTVTVSS
chain 2: DIQMTQSPSSLSASVGDRVTITCSVSSSVSSIYLHWYQQKPGKAPKLLIYSTSNLASGVPSRFSGSGSGTDFTLTISSLQPEDFATYYCQVYSGYPLTFGGGTKVEIK

Variants of: B1
Experiment: yeast display scFab, FACS + sequencing
How it was run: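 The non-specific binding call was based on sorted and sequenced yeast displaying a heavy-chain CDR mutant scFab library. Labelling used anti-Myc with biotinylated ovalbumin (260 μg/mL in PBSB, 3 h, room temperature) or soluble membrane proteins (130 μg/mL, 20 min on ice), and FACS collected the top 25% and bottom 10% of binders in two replicates. Positive meant present in ≥3 of 4 pooled positive samples and in no negatives, and negative meant the converse.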

Variant | non-specific binding call
SETGGAGD | no binding
VEKGGDVS | no binding
VEGGNDGA | no binding
VEKGGSGD | no binding
VEKGGSGV | no binding
YEGTGSLS | no binding
VEGGGYSV | no binding
YEGTGAGA | no binding
DEGGTDVY | no binding
DEGGTDVF | no binding
DEGGTDVD | no binding
DEGGTDVA | no binding
VETGNDAV | no binding
SETTDSLD | no binding
YETGAAAA | no binding
DEGGTDAV | no binding
DEGGTDAA | no binding
VEGTSDGD | no binding
FERRAFGY | binds
SETTDAGD | no binding
SETTDAGV | no binding
VEGRGDGY | no binding
VEGRGDGA | no binding
SEREADWF | no binding
DEGKDDVA | no binding

Variant | non-specific binding call
VEGTSAGD | no binding
FETGGYVY | no binding
SEGRGDAA | no binding
SETTDDVA | no binding
VEGTSDLS | no binding
VEGGTDVA | no binding
VEGGTDVV | no binding
VETGGAVA | no binding
DEGGTALA | no binding
YEKETAGV | binds
FERTSVWF chain 1 L45F | binds
AETKGFAV | no binding
VETGNAVY | no binding
SEGRGAWY | no binding
AETTDSWV | no binding
YEKGGAGD | no binding
YETGNVWF | no binding
DEKKADWA | no binding
DEGRGDGV | no binding
YEGTGAVF | no binding
VEGKGAGD | no binding
YEKGGDGA | no binding
YEKGGDGV | no binding
VEGRGDAV | no binding
SEGTSAVF | no binding

Variant | non-specific binding call
SETGGDWV | no binding
AEREADWV | no binding
SERRSSAF | no binding
YETEGDVF | no binding
VETEGDAV | no binding
VEKEGDVY | no binding
DETKGDWD | no binding
AEGRGAVY | no binding
VEGTSDVV | no binding
VEGTSSSV | no binding
AETAGAAA | no binding
YEKEDYLA chain 1 G108D | no binding
VEGGTAGS | no binding
DEGGTSLD | no binding
VETGNDGA | no binding
VETGNDGV | no binding
SEGRGSGV | no binding
YEGTGSAD | no binding
FEGGTDVV | no binding
VETGNSLV | no binding
YERRNDVV | no binding
VETEGDGV | no binding
VETEGDGF | no binding
VEGRGDVF | no binding
AEGTNAGD | no binding

Variant | non-specific binding call
YEGTGDVV | no binding
SETKGDWA | no binding
SETKGDWD | no binding
AETGASLS | no binding
VETTDSWV | no binding
SEGRGDVY | no binding
AERRDDGA | no binding
DEGGTSSA | no binding
VEKGGDGV | no binding
YEGRGDVA | no binding
YEKGGDVD | no binding
YEKGGDVY | no binding
SEGTGAGV | no binding
DETEGDVF | no binding
VETGNSGA | no binding
VEGTGVGD | binds
DEKGGSSA | no binding
YERRGSWS | no binding
AEGGTDVV | no binding
VEREADWF | no binding
SETGGFVV | no binding
SEKKADWA | no binding
VETGGAAA | no binding
DEGGTDWD | no binding
DEGGTDWV | no binding

Variant | non-specific binding call
DEGGTDWY | no binding
VEGTSASV | no binding
SETGADVA | no binding
VEKTGVGA | binds
VEGTSSLD | no binding
VETEGAGA | no binding
YETKGDWD | no binding
DEGRSVAA | binds
DEGKGFGS | binds
DETGGDWF | no binding
VEKEGAGD | no binding
AETKGDWD | no binding
AETKGDWV | no binding
SETKGDVY | no binding
DEGTDYAA | binds
AETKGAAA | no binding
VEGTGAGD | no binding
SEKGGSSA | no binding
DEGGTSAD | no binding
AETKGSLA | no binding
FEKEADAF | binds
AETKGALD | no binding
SETGGDVA | no binding
YEGRNVGV | binds
DEGGTSVD | no binding

Variant | non-specific binding call
DEGTGAVA | no binding
SEKEGDAA | no binding
DEGTGALA | no binding
YERESAAV | no binding
SETGNVWF | no binding
SEGTGSGD | no binding
VERGTYGV | no binding
DEGGTDLD | no binding
SETGAALD | no binding
VERGGFGS | binds
VERASAVV | no binding
VEGTGDWD | no binding
VEKGGDAA | no binding
VETEGSGV | no binding
FEKGSDVA | no binding
YEGTGSWA | no binding
VEKEGDGA | no binding
VEKEGDGS | no binding
VEKEGDGV | no binding
DEGGTAAA | no binding
DETGNVWF | no binding
AERRGSWS | no binding
SETTDDAV | no binding
DEGGTDGY | no binding
DEGGTDGV | no binding

Variant | non-specific binding call
DEGGTDGS | no binding
YERTTDLS | binds
YEGGTDVV | no binding
YEKGGAWS | binds
VEKKDYSA | no binding
VERKGYLA | binds
VERRGSWS | no binding
DEKEGDAA | no binding
YERRDVLY | binds
YETETALY | no binding
DEGRGSWA | no binding
YETTDSWV | no binding
AETKGDGV | no binding
AETKGDGA | no binding
VEKEGDAD | no binding
DEGGTAGV | no binding
DEGGTAGA | no binding
DEGKAAGS | no binding
FERTSALF | binds
VETGNSSA | no binding
SEKKDYSA | no binding
SEGRGDGA | no binding
SEGRGAAA | no binding
VEGTSAAY | no binding
VETEGDWY | no binding

Variant | non-specific binding call
VETEGDWD | no binding
AETKGAVA | no binding
AEGTSAVF | no binding
VETGNDLV | no binding
VETRSDVA | no binding
VETRSSSV | no binding
DETGGSSD | no binding
VEKGGDWD | no binding
VETEGAVY | no binding
VETEGSSV | no binding
AETKGDVY | no binding
SEKKSAGA | no binding
DERRSSAF | no binding
DEGGTAVA | no binding
DEGGTAVV | no binding
VEGTNDVV | no binding
YERRSSAF | no binding
SETTDSSA | no binding
SEGTGSSV | no binding
SEGGTDVV | no binding
YEGTGSGD | no binding
VETEGDVA | no binding
VETEGDVY | no binding
VERGGDSY | no binding
YEKETVVA | binds

Variant | non-specific binding call
SEGGSAAY | no binding
DEGGTDSF | no binding
DEGGTDSA | no binding
DETRSAGA | no binding
YEGGTSGA | no binding
SERRDVLY | binds
VETKGDWD | no binding
SEGTGDWV | no binding
VEGTSSGD | no binding
DEGGTSGV | no binding
YEGGTDGA | no binding
VEGRGAVY | no binding
VETGNDVA | no binding
VEKEGDWY | no binding
VEGTSAVY | no binding
VEGTSAVF | no binding
FEKEGDAA | no binding
DEGRGDWY | no binding
